B1: HDV Ribozyme (parent)
chain: GGCCGGCAUGGUCCCAGCCUCCUCGCUGGCGCCGGCUGGGCAACAUUCCGAGGGGACCGUCCCCUCGGUAAUGGCGAAUGGGACCCA

Variants of: B1
Test: self-cleavage, relative activity (ratio to wild type); higher = more cleavage; co-transcriptional
GGCCGGCAUGGUCCCAGCCUCCUUGCUGGCGCCGGCUGGGCAACAUUCGGAGGGGACCGUCCCCUCGGUAAUGGCGAAUGGGACCCA showed a self-cleavage of 0.536. In the case of GGCCGGCAUGGUCCCAGCCUCCUUGCUGGCGCCGGCUGGGCAACAUUCAGAGGGGACCGUCCCCUCGGUAAUGGCGAAUGGGACCCA, the self-cleavage is reported as 0.739. GGCCGGCAUGGUCCCAGCCUCCUUGCUGGCGCCGGCUGGGCAACAUUCCGAGGGGACCGUCCCCUUGGUAAUGGCGAAUGGGACCCA gave a self-cleavage of 0.629. For GGCCGGCAUGGUCCCAGCCUCCUUGCUGGCGCCGGCUGGGCAACAUUCCGAGGGGACCGUCCCCUGGGUAAUGGCGAAUGGGACCCA, the self-cleavage was 0.796. For GGCCGGCAUGGUCCCAGCCUCCUUGCUGGCGCCGGCUGGGCAACAUUCCGAGGGGACCGUCCCCUCGGUAAUGGCGAAUGGGACCCU, the self-cleavage was 0.696. For GGCCGGCAUGGUCCCAGCCUCCUUGAUGGCGCCGGCUGGGCAACAUUCCGAGGGGACCGUCCCCUCGGUAAUGGCGAAUGGGACCCA, the self-cleavage was 0.955. For GGCCGGCAUGGUCCCAGCCUCCUUGCUGGCGCCGGCUGGGCAACAUUCCGAGGGGACCGUUCCCUCGGUAAUGGCGAAUGGGACCCA, the self-cleavage was 0.718. GGCCGGCAUGGUCCCAGCCUCCUUGCUGGCGCCGGCUGGGCAACAUUCCGAGGGGACCGUACCCUCGGUAAUGGCGAAUGGGACCCA showed a self-cleavage of 0.591. For GGCCGGCAUGGUCCCAGCCUCCUUGCUGGCGCCGGCUGGGCAAAAUUCCGAGGGGACCGUCCCCUCGGUAAUGGCGAAUGGGACCCA, the self-cleavage was 0.277. Work on GGCCGGCAUGGUCCCAGCCUCCUUGCUGGCGCCGGCUGGGCAACAUUCCGAGGGGACCGUCCCCUCGGUAAUGGCGCAUGGGACCCA yielded a self-cleavage of 0.119. For GGCCGGCAUGGUCCCAGCCUCCUUGCUGGCGCCGGAUGGGCAACAUUCCGAGGGGACCGUCCCCUCGGUAAUGGCGAAUGGGACCCA, the self-cleavage was 0.0256. GGCCGGCAUGGUCCCAGCCUCCUUGCUGGCGCCGGCUGGGCAACAUUCCGAGGGGACCGUCCCAUCGGUAAUGGCGAAUGGGACCCA gave a self-cleavage of 0.848. Work on GGCCGGCAUGGUCCCAGCCUCCUUGCUGGCGCCGGCUGGGCAACAUUCCGAGGGGACCGUCCCUUCGGUAAUGGCGAAUGGGACCCA yielded a self-cleavage of 0.511. Variant GGCCGGCAUGGUCCCAGCCUCCUUGCUGGCGCCGGCUGGGCAACAUUCCGAGGGGACCGUCGCCUCGGUAAUGGCGAAUGGGACCCA has a self-cleavage of 0.341. GGCCGGCAUGGUCCCAGCCUCCUUGCUGGCGCCGGCUGGGCAACAUUCCGAGGGGACCGUCUCCUCGGUAAUGGCGAAUGGGACCCA gave a self-cleavage of 0.763. For GGCCGGCAUGGUCCCAGCCUCCUUGCUGGCGCCGGCUGGGCAACAUUCCGAGGGGACCGUCACCUCGGUAAUGGCGAAUGGGACCCA, the self-cleavage was 0.471. GGCCGGCAUGGUCCCAGCCUCCUUGCUGGCGCCGGCUGGGCAACAUUCCGAGGGGACCGUCCGCUCGGUAAUGGCGAAUGGGACCCA showed a self-cleavage of 0.76. Variant GGCCGGCAUGGUCCCAGCCUCCUUGCUGGCGCCGGCUGGGCAACAUUCCGAGGGGACCGUCCUCUCGGUAAUGGCGAAUGGGACCCA has a self-cleavage of 0.726. GGCCGGCAUGGUCCCAGCCUCCUUGCUGGCGCCGGCUGGGCAACAUUCCGAGGGGACCGUCCCCUCGGUAUUGGCGAAUGGGACCCA gave a self-cleavage of 0.587. For GGCCGGCAUGGUCCCAGCCUCCUUGCUGGCGCCGGCUGGGCAACAUUCCGAGGGGACCGUCCCCUCGGUAGUGGCGAAUGGGACCCA, the self-cleavage was 0.648. GGCCGGCAUGGUCCCAGCCUCCUUGCUGGCGCUGGCUGGGCAACAUUCCGAGGGGACCGUCCCCUCGGUAAUGGCGAAUGGGACCCA gave a self-cleavage of 0.354. GGCCGGCAUGGUCCCAGCCUCCUUGCUGGCGCCGGCUGGGCAACAUUCCGAGGGGAGCGUCCCCUCGGUAAUGGCGAAUGGGACCCA gave a self-cleavage of 0.779. For GGCCGGCAUGGUCCCAGCCUCCUUGCUGGCGCCGGCUGGGCAACAUUCCGAGGGGAACGUCCCCUCGGUAAUGGCGAAUGGGACCCA, the self-cleavage was 0.831. Variant GGCCGGCAUGGUCCCAGCCUCCUUGCUGGCGCCGGCUGGGCAACAUUCCGAGGGGAUCGUCCCCUCGGUAAUGGCGAAUGGGACCCA has a self-cleavage of 0.538. With GGCCGGCAUGGUCCCAGCCUCCUUGCUGGCGCCGGCUGGGCAACAUUCCGAGGGGACCGUCCCCUCGGUAAUGGGGAAUGGGACCCA the self-cleavage was 0.119. Variant GGCCGGCAUGGUCCCAGCCUCCUUGCUGGCGACGGCUGGGCAACAUUCCGAGGGGACCGUCCCCUCGGUAAUGGCGAAUGGGACCCA has a self-cleavage of 0.0287. Work on GGCCGGCAUGGUCCCAGCCUCCUUGCUGGCGUCGGCUGGGCAACAUUCCGAGGGGACCGUCCCCUCGGUAAUGGCGAAUGGGACCCA yielded a self-cleavage of 0.422. GGCCGGCAUGGUCCCAGCCUCCUUGCUGGCGCCGGCUGGGCAACAUUCCGAGGGGGCCGUCCCCUCGGUAAUGGCGAAUGGGACCCA gave a self-cleavage of 0.77. For GGCCGGCAUGGUCCCAGCCUCCUUGCUGGUGCCGGCUGGGCAACAUUCCGAGGGGACCGUCCCCUCGGUAAUGGCGAAUGGGACCCA, the self-cleavage was 0.142. Work on GGCCGGCAUGGUCCCAGCCUCCUUGCUGGGGCCGGCUGGGCAACAUUCCGAGGGGACCGUCCCCUCGGUAAUGGCGAAUGGGACCCA yielded a self-cleavage of 0.122. In the case of GGCCGGCAUGGUCCCAGCCUCCUUGCUGGAGCCGGCUGGGCAACAUUCCGAGGGGACCGUCCCCUCGGUAAUGGCGAAUGGGACCCA, the self-cleavage is reported as 0.0482. Variant GGCCGGCAUGGUCCCAGCCUCCUUGCUGGCGCCGGCUGGGCAACAUUCCGAGGGGACCGUCCCCUCGGUAAUGGCGAGUGGGACCCA has a self-cleavage of 0.397.

From the RNAGym collection of RNA variant scans (doi:10.7554/elife.80360)
